Patent US20200024330A1

How the values were obtained:
[1] = target: HIV-1 NL43 envelope glycoprotein (Env) on pseudovirus (HIV-1); assay: cell-based or functional assay
[2] = target: HIV-1 MGRM-C-028 envelope glycoprotein (Env) on pseudovirus (HIV-1); assay: cell-based or functional assay
[3] = target: HIV-1 92BR020 envelope glycoprotein (Env) on pseudovirus (HIV-1); assay: cell-based or functional assay
[4] = target: HIV-1 MGRM-AG-005 envelope glycoprotein (Env) on pseudovirus (HIV-1); assay: cell-based or functional assay
[5] = target: HIV-1 MGRM-A-010 envelope glycoprotein (Env) on pseudovirus (HIV-1); assay: cell-based or functional assay
[6] = target: HIV-1 92TH021 envelope glycoprotein (Env) on pseudovirus (HIV-1); assay: cell-based or functional assay
[7] = target: HIV-1 MGRM-D-001 envelope glycoprotein (Env) on pseudovirus (HIV-1); assay: cell-based or functional assay
[8] = target: HIV-1 JRCSF envelope glycoprotein (Env) on pseudovirus (HIV-1) (UniProt P20871); assay: cell-based or functional assay
[9] = target: HIV-1 APV13 envelope glycoprotein (Env) on pseudovirus (HIV-1); assay: cell-based or functional assay
[10] = target: HIV-1 CMU02 envelope glycoprotein (Env) on pseudovirus (HIV-1); assay: cell-based or functional assay
[11] = target: HIV-1 APV6 envelope glycoprotein (Env) on pseudovirus (HIV-1); assay: cell-based or functional assay
[12] = target: HIV-1 92UG024 envelope glycoprotein (Env) on pseudovirus (HIV-1); assay: cell-based or functional assay
[13] = target: aMLV envelope protein on pseudovirus (negative control virus); assay: cell-based or functional assay
[14] = target: HIV-1 JRFL envelope glycoprotein (Env) on pseudovirus (HIV-1); assay: cell-based or functional assay
[15] = target: HIV-1 93IN905 envelope glycoprotein (Env) on pseudovirus (HIV-1); assay: cell-based or functional assay
[16] = target: HIV-1 92RW020 envelope glycoprotein (Env) on pseudovirus (HIV-1); assay: cell-based or functional assay
[17] = target: HIV-1 94UG103 envelope glycoprotein (Env) on pseudovirus (HIV-1); assay: cell-based or functional assay
[18] = target: HIV-1 MGRM-D-018 envelope glycoprotein (Env) on pseudovirus (HIV-1); assay: cell-based or functional assay
[19] = target: HIV-1 MGRM-C-026 envelope glycoprotein (Env) on pseudovirus (HIV-1); assay: cell-based or functional assay
[20] = target: HIV-1 92UG005 envelope glycoprotein (Env) on pseudovirus (HIV-1); assay: cell-based or functional assay
[21] = target: HIV-1 93UG077 envelope glycoprotein (Env) on pseudovirus (HIV-1); assay: cell-based or functional assay
[22] = target: HIV-1 MGRM-C-027 envelope glycoprotein (Env) on pseudovirus (HIV-1); assay: cell-based or functional assay
[23] = target: HIV-1 APV17 envelope glycoprotein (Env) on pseudovirus (HIV-1); assay: cell-based or functional assay
[24] = target: HIV-1 Env of isolate 93IN905 (HIV-1); assay: cell-based or functional assay
[25] = target: Env of the clade G HIV-1 pseudoviruses of the cross-clade 162-pseudovirus panel (n = 15); assay: cell-based or functional assay
[26] = target: Env of the clade F HIV-1 pseudoviruses of the cross-clade 162-pseudovirus panel (n = 15); assay: cell-based or functional assay
[27] = target: Env of the clade C HIV-1 pseudoviruses of the cross-clade 162-pseudovirus panel (n = 27); assay: cell-based or functional assay
[28] = target: HIV-1 Env of isolate MGRM-C-026 (HIV-1); assay: cell-based or functional assay
[29] = target: HIV-1 Env of isolate JR-CSF (HIV-1) (UniProt P20871); assay: cell-based or functional assay
[30] = target: Env of the clade A HIV-1 pseudoviruses of the cross-clade 162-pseudovirus panel (n = 26); assay: cell-based or functional assay
[31] = target: Env of the clade B HIV-1 pseudoviruses of the cross-clade 162-pseudovirus panel (n = 31); assay: cell-based or functional assay
[32] = target: Env of the clade D HIV-1 pseudoviruses of the cross-clade 162-pseudovirus panel (n = 25); assay: cell-based or functional assay
[33] = target: JR-FL gp120 ΔV3 (HIV-1 (isolate JR-FL)); assay: ELISA on coated gp120; EC50 by nonlinear regression
[34] = target: JR-FL gp120 ΔV1/ΔV2 (HIV-1 (isolate JR-FL)); assay: as above
[35] = target: WT JR-FL gp120 (HIV-1 (isolate JR-FL)); assay: as above

B1: PGT-136 (5329_C19; 5366_P21) human monoclonal anti-HIV antibody (antibody, V domains shown)
VH: QLQLQESGPGLVKPSETLSLTCTVSGGSMRGTDWGENDFHYGWIRQSSAKGLEWIGSIHWRGRTTHYKTSFRSRATLSIDTSNNRFSLTFSFVTAADTAVYYCARHKYHDIFRVVPVAGWFDPWGQGLLVTVSS
VL: EIVMTQSPPTLSVSPGETATLSCRASQNVKNNLAWYQLKPGQAPRLLIFDASSRAGGIPDRFSGSGYGTDFTLTVNSVQSEDFGDYFCQQYEEWPRTFGQGTKVDIK
0.619 µg/mL: neutralization IC80 [12]
0.159 µg/mL: neutralization IC95 [19]
5.97 µg/mL: neutralization IC95 [12]
0.738 µg/mL: neutralization IC50 [16]
0.0135 µg/mL: neutralization IC50 [15]
0.0623 µg/mL: neutralization IC80 [15]
0.156 µg/mL: neutralization IC90 [15]
0.0285 µg/mL: neutralization IC80 [19]
0.0065 µg/mL: neutralization IC50 [19]
> 10 µg/mL: neutralization IC50 [1] | neutralization IC80 [1] | neutralization IC90 [1] | neutralization IC95 [1] | neutralization IC50 [2] | neutralization IC80 [2] | neutralization IC90 [2] | neutralization IC95 [2] | neutralization IC50 [3] | neutralization IC80 [3] | neutralization IC90 [3] | neutralization IC95 [3] | neutralization IC50 [4] | neutralization IC80 [4] | neutralization IC90 [4] | neutralization IC95 [4] | neutralization IC50 [5] | neutralization IC80 [5] | neutralization IC90 [5] | neutralization IC95 [5] | neutralization IC50 [6] | neutralization IC80 [6] | neutralization IC90 [6] | neutralization IC95 [6] | neutralization IC50 [7] | neutralization IC80 [7] | neutralization IC90 [7] | neutralization IC95 [7] | neutralization IC50 [8] | neutralization IC80 [8] | neutralization IC90 [8] | neutralization IC95 [8] | neutralization IC50 [9] | neutralization IC80 [9] | neutralization IC90 [9] | neutralization IC95 [9] | neutralization IC50 [10] | neutralization IC80 [10] | neutralization IC90 [10] | neutralization IC95 [10] | neutralization IC50 [11] | neutralization IC80 [11] | neutralization IC90 [11] | neutralization IC95 [11] | neutralization IC50 [13] | neutralization IC80 [13] | neutralization IC90 [13] | neutralization IC95 [13] | neutralization IC50 [14] | neutralization IC80 [14] | neutralization IC90 [14] | neutralization IC95 [14] | neutralization IC80 [16] | neutralization IC90 [16] | neutralization IC95 [16] | neutralization IC50 [17] | neutralization IC80 [17] | neutralization IC90 [17] | neutralization IC95 [17] | neutralization IC50 [18] | neutralization IC80 [18] | neutralization IC90 [18] | neutralization IC95 [18] | neutralization IC50 [20] | neutralization IC80 [20] | neutralization IC90 [20] | neutralization IC95 [20] | neutralization IC50 [21] | neutralization IC80 [21] | neutralization IC90 [21] | neutralization IC95 [21] | neutralization IC50 [22] | neutralization IC80 [22] | neutralization IC90 [22] | neutralization IC95 [22] | neutralization IC50 [23] | neutralization IC80 [23] | neutralization IC90 [23] | neutralization IC95 [23]
0.379 µg/mL: neutralization IC95 [15]
1.96 µg/mL: neutralization IC90 [12]
0.0687 µg/mL: neutralization IC90 [19]
0.0915 µg/mL: neutralization IC50 [12]

B2: PGT-137 (antibody, V domains shown)
VH: EVHLEESGPGLVRPSETLSLTCTASGGSIRGGEWGDSDYHWGWVRHSPEKGLEWIGSIHWRGTTHYNAPFRGRGRLSIDLSRNQFSLRLTSVTAEDTAVYYCVKHKYHDIVMVVPIAGWFDPWGQGLQVTVSS
VL: EIMMTQSPAILSVSPGDRATLSCRASQSVKNNLAWYQKRPGQAPRLLIFDTSSRASGIPARFSGGGSGTEFTLTVNSMQSEDFATYYCQQYEEWPRTFGQGTKVEIK
0.2 µg/mL: EC50 [34]
8.55 µg/mL: Median IC50 against viruses neutralized with an IC50 <50 µg/ml [31]
0.23 µg/mL: Median IC50 against viruses neutralized with an IC50 <50 µg/ml [25] | Median IC50 against viruses neutralized with an IC50 <50 µg/ml [27]
6.23 µg/mL: Median IC50 against viruses neutralized with an IC50 <50 µg/ml [26]
1.1: Primary Neutralization Index (B cell culture well 5345 I1) [29]
0.1 µg/mL: EC50 [33] | EC50 [35]
11.3: Primary Neutralization Index (B cell culture well 5345 I1) [28]
0.72 µg/mL: Median IC50 against viruses neutralized with an IC50 <50 µg/ml [30]
3.3: Primary Neutralization Index (B cell culture well 5345 I1) [24]
6.3 µg/mL: Median IC50 against viruses neutralized with an IC50 <50 µg/ml [32]
